This test has as its target I-E^k (murine MHC class II molecule, surface-resident on BMDCs and B-cells) (mouse (endogenous in BMDCs and B-cells of B10.A mice)). In words: flow cytometry on cells; B-cells and BMDCs pulsed with 25 and 50 uM MCC-PEG2-biotin for up to 36 h (with LPS), stained with saturating mSav-AF647 or 14.4.4 scFV-AF647 (10 ug/ml); ratio of the MFIs. On the technique in general: In flow cytometry, cells or beads pass a laser one at a time.

Drawing on publication PMC10626418, this text covers proportion of surface-resident I-E^k loaded with the peptide for one molecule.

Non-standard residues stand in square brackets, D forms with d. Groups on a side chain read outwards from the residue. Primed or numbered codes have the meaning given here. No end group written: not given here. *: point of attachment. Biotin = O=C1N[C@H]2[C@H](CS[C@H]2CCCCC(=O)*)N1; PEG2′ = not defined here

On to ANERADLIAYLKQATK[dS][dS][dC]([maleimide-PEG2′-Biotin]) [C-terminally biotinylated MCC peptide 88-103 derivative (MCC-PEG2-biotin)], for which the proportion of surface-resident I-E^k loaded with the peptide is < 17%.
